The values below come from patent US20240026028A1 (JIANGSU HENGRUI PHARMACEUTICALS, published 2024).

Assay [1] addresses HER3 recombinantly expressed on CHO-K1 cells (human, UniProt P21860 20-643). In words: cell-based or functional assay.
For assay [2], the target named is T1, HER3 expressed by MCF7 cells (human, UniProt P21860 20-1342).
T1 construct: whole, on cells; Endogenous HER3 on MCF7 cells; also called cells expressing HER3 protein
In words: flow cytometry on MCF7 cells, geometric mean fluorescence. The procedure:
MCF7 cells (ATCC, HTB-22) were suspended in FACS buffer (2% fetal bovine serum (Gibco, 10099141) pH 7.4 PBS (Sigma, P4417-100TAB)) to give a 1×10⁶ cells/mL cell suspension, which was then added to a 96-well round-bottom plate at 100 μL/well. After centrifugation and removal of the supernatant, the test antibody that was diluted with FACS buffer to different concentrations was added at 50 μL/well. The plate was incubated in the dark in a 4° C. refrigerator for 1 h. The plate was washed 3 times with FACS buffer by centrifugation at 300 g, and Alexa Fluor 488 Goat anti-HuMan IgG (H+L) (invitrogen, A-11013) at working concentration was then added. The plate was incubated in the dark in a 4° C. refrigerator for 40 min. The plate was washed 3 times with FACS buffer by centrifugation at 300 g and tested on a BD FACSCantoII flow cytometer for geometric mean fluorescence intensity.

The target in assay [3] is T2, HER3 protein (free, coated on the ELISA plate) (UniProt P21860 20-643, limits assumed).
T2 construct: also called free HER3 protein
T2 sequence (P21860 20-643 limits assumed): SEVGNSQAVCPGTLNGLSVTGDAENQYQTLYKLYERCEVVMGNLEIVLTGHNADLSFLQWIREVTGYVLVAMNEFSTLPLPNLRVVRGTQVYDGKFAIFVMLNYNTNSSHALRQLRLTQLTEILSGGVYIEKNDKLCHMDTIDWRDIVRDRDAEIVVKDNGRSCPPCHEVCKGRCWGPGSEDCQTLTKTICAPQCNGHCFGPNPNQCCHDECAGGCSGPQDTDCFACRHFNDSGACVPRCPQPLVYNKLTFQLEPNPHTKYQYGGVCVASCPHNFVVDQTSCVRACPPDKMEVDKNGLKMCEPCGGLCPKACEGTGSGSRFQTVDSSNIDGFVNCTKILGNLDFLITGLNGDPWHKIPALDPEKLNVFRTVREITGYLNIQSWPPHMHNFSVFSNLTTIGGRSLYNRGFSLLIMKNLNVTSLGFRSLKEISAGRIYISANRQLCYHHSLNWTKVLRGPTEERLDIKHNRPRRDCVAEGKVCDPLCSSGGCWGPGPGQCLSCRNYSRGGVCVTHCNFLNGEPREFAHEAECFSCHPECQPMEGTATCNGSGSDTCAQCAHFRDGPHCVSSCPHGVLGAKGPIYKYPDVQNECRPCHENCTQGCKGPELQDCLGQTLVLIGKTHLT
In words: ELISA, HER3 protein coated on the plate, antibody titrated. The procedure:
HER3 protein was diluted to 1 μg/mL with pH 7.4 PBS buffer (Shanghai BasalMedia Technologies Co., LTD., B320) and added to a 96-well microplate at 100 μL/well. The plate was incubated at 4° C. overnight. After the liquid was discarded, 300 μL of 5% skim milk (BD, 232100) diluted with PBS was added to each well for blocking, and the plate was incubated at 37° C. for 2 h. After the blocking was completed, the blocking solution was discarded; after the plate was washed 3 times with PBST buffer (pH 7.4 PBS containing 0.1% tween-20), 100 μL of a gradient diluted antibody solution was added to each well, and the plate was incubated at 37° C. for 1 h. After the incubation was completed, the plate was washed 3 times with PBST buffer, and 100 μL of 1:8000 diluted Mouse Anti-HuMan IgG (H+L) (Jackson ImmunoResearch, 209-035-088) was added to each well. The plate was incubated at 37° C. for 1 h. After the plate was washed 3 times with PBST buffer, 100 μL of TMB chromogenic substrate (KPL, 5120-0077) was added to each well, and the plate was incubated at room temperature for 10-15 min. The reaction was terminated by adding 50 μL of 1 M H₂SO₄ to each well. The absorbance readings at 450 nm were taken on a microplate reader, and the binding curves of the antibodies to antigen were fitted with software, as shown in FIG. 1.

T1 sequence (P21860 20-1342): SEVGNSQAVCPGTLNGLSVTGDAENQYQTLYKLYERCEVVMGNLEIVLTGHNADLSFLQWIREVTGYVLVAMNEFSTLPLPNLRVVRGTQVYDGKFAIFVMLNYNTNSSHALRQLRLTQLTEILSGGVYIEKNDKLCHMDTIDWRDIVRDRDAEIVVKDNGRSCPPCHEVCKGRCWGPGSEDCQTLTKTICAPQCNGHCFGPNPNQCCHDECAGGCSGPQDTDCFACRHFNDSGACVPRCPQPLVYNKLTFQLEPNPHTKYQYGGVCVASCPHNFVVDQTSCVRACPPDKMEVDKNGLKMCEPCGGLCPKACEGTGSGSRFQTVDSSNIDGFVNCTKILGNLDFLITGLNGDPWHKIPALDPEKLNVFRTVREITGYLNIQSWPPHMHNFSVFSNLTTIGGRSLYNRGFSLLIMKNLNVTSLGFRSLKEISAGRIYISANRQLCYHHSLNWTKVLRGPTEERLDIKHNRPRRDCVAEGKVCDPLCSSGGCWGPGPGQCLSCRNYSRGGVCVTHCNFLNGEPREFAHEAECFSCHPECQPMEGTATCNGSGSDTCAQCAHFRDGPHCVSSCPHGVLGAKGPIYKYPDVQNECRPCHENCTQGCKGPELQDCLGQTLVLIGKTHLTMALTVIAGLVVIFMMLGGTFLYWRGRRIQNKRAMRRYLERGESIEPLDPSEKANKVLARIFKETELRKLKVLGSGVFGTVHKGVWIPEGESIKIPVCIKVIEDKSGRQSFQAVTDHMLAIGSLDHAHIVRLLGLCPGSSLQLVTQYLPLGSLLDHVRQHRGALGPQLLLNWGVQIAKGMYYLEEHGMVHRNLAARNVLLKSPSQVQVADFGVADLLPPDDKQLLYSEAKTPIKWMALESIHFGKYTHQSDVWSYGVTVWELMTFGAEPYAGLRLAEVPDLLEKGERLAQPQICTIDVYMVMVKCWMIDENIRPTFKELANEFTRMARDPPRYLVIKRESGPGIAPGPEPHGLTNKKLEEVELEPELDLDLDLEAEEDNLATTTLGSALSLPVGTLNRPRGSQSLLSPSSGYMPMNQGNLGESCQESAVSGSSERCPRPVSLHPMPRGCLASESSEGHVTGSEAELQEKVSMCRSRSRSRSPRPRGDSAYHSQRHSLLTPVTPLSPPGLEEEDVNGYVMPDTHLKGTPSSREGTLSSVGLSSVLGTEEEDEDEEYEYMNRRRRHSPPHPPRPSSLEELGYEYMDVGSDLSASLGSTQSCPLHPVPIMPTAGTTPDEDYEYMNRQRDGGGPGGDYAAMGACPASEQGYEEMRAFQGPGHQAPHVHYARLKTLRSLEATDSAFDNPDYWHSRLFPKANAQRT
HER3 recombinantly expressed on CHO-K1 cells, sequence (P21860 20-643): as the sequence (P21860 20-643 limits assumed) above

B1: positive control antibody U3 (antibody, human IgG1, kappa, V domains shown)
VH: QVQLQQWGAGLLKPSETLSLTCAVYGGSFSGYYWSWIRQPPGKGLEWIGEINHSGSTNYNPSLKSRVTISVETSKNQFSLKLSSVTAADTAVYYCARDKWTWYFDLWGRGTLVTVSS
VL: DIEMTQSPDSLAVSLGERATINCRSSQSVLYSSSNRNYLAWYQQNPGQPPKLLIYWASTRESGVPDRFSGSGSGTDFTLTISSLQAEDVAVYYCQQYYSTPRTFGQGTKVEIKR
notes: also called U1-59 (WO2007077028A2)
Usually EC50 stands for the concentration needed to bring the measured effect to its halfway point. On to B1, for which the “IC50 (nM) (DT3C antibody endocytosis assay, cell killing)” value in assay [1] came out at 2.81 nM. For the same molecule, the EC50 in assay [2] was 0.249 nM; in assay [3] it was 0.56 nM.

B2: fully human antibody molecule HER3-29 (antibody, human IgG1, kappa, V domains shown)
VH: QVQLVQSGGGLVQPGRSLRLSCAASGFTFDDYAMHWVRQAPGKGLEWVSGISWNSGSIGYADSVKGRFTISRDNAKNSLYLQMNSLRAEDTALYYCAKEGLPGLDYWGQGTLVTVSS
VL: DIQMTQSPSSLSASIGDRATITCRASQHVGTYLNWYQQKPGKTPKLLISGAANLQSGVPSRFSGSGSGTDFTLTISSLQPEDFATYYCQQSYNTPPFSFGQGTKVEIKR
notes: Human IgG1 / kappa; From a fully human natural phage library, expressed in HEK293 and Expi-CHO-S cells; also called antibody HER3-29
In the case of B2, the “IC50 (nM) (DT3C antibody endocytosis assay, cell killing)” value in assay [1] was found to be 0.51 nM. Further, the EC50 in assay [2] amounted to 0.057 nM; in assay [3], 0.14 nM.
